Measurements: patent US20200347144A1 (SHANGHAI HYAMAB BIOTECH, published 2020)

B1: 182A5B3 (antibody, V domains shown)
VH: QVQLVQSGAEVKKPGASVKVSCKASGYTFTSYDINWVRQATGQGLEWMGWMNPNSGNTGYVQKFQGRVTMTRNTSISTAYMELSSLRSEDTAVYYCARETGPFDYWGQGTLVTVSS
VL: not shown
B2: 263A11E3 (antibody, V domains shown)
VH: QVQLQESGPGLVKPSETLSLTCAVSGYSISSGYYWGWIRQPPGKGLEWIGSIYHSGSTSYNPSLRSRVTISVDTSKNQFSLKLSSVTAADTAVYYCARDAGGFDYWGQGTLVTVSS
VL: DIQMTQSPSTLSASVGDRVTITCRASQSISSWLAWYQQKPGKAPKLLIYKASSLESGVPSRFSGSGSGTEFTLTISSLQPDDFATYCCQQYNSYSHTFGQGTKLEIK
B3: 289B6G6 (antibody, V domains shown)
VH: QVQLQESGPGLVRPSETLSLTCAVSGYSISSGYYWGWIRQPPGKGLEWIGSIFHSGNTYYNPSLKSRVIVSGDTSKNQFSLKLSSVTAADTAVYYCTRESSGFNVFDIWGQGTMVTVSS
VL: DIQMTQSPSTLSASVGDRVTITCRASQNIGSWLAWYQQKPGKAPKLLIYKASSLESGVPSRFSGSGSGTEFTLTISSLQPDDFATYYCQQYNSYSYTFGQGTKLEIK
B4: 258F5A8 (antibody, V domains shown)
VH: QVQLVESGGGVVQPGRSLRLSCAASGFTFSSYGMHWVRQAPGKGLEWVAVIWYDGSNKYYADSVKGRFNISRDNSKNTLYLQMNSLRAEDTAVYYCARGPYLYSSGWYDYYYYGMDVWGQGTTVTVSS
VL: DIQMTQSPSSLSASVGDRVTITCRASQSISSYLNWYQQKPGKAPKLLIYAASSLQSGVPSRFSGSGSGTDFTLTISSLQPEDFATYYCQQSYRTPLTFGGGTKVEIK
B5: 259G10E11 (antibody, V domains shown)
VH: QVQLVESGGGVVQPGRSLRLSCAASGFTFSSYGMHWVRQAPGKGLEWVAVIWYDGSNKYYADSVKGRFTISRDNSKNTLYLQMNSLRAEDTAVYYCARGPYLYSSGWYDYYYYGMDVWGQGTTVTVSS
VL: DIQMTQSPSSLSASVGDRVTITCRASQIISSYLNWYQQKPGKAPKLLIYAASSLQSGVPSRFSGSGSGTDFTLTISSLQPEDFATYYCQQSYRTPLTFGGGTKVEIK
B6: 23G3B8 (antibody, V domains shown)
VH: QVQLQESGPGLVKPSETLSLTCAVSAYSISSGYYWGWIRQPPGKGLEWIGSIFHSGSNYYNPSLKSRVTISVDPSKNQFSLKLSSVTVADTAVYYCARESSGYNCFDYWGQGTLVTVSS
VL: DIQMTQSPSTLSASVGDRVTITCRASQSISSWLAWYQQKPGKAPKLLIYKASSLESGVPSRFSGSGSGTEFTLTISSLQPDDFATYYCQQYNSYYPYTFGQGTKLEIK

Assays:
[1] = target: T1, monkey 4-1BB on CHOK1 cells (monkey); experiment: FACS on CHOK1-c4-1BB cells, Alexa 488 secondary antibody, average fluorescence intensity
T1 construct: whole, on cells; also called CHOK1-c4-1BB
Excerpt: The pIRES plasmid carrying the full-length gene of monkey-derived […] (the preparation method is the same as the preparation method of the pCpC vector carrying the human-derived IgG Fc fragment (hFc) in “Preparation of immunogen A” of the step (1) in Example 1, in which the database accession number of the amino acid sequence of the extracellular region of monkey 4-1BB protein (Phe19-Thr239) is G7PSE7) was transfected into CHOK1 cell line to obtain CHOK1 stable transfected cell line containing monkey 4-1BB (herein referred to as CHOK1-c4-1BB stable cell line). The CHOK1-h4-1BB stable cell line and the CHOK1-c4-1BB stable cell line were expanded and cultivated to 90% confluence in T-75 cell culture flasks. The medium was exhausted, and washed twice with HBSS buffer (Hanks Balanced Salt Solution, purchased from Invitrogen), and then the cells were treated and collected with enzyme-free cell dissociation solution (Versene solution, purchased from Life Technology). The cells were washed twice with HBSS buffer, and after cell counting, the cells were diluted with HBSS buffer to 2×10⁶ cells per ml, and 1% goat serum blocking solution was added, the percentage being the mass percentage. It was incubated on ice for 30 minutes, and then washed twice with HBSS buffer by centrifugation. The collected cells were suspended in FACS buffer (HBSS containing 1% BSA, the percentage was the mass percentage) to 2×10⁶ cells/mL, and 100 μl per well was added to a 96-well FACS reaction plate. The purified 4-1BB antibody test sample obtained in Example 2 was added, 100 microliters per well and incubated on ice for 2 hours. […] It was washed three times with FACS buffer by centrifugation, and 100 μl of fixative [4% (v/v) paraformaldehyde] per well was added to suspend cells, and washed twice with FACS buffer after 10 minutes by centrifugation. The cells were suspended with 100 microliters of FACS buffer, and the results were detected and analyzed with FACS (FACS Calibur, purchased from BD).

monkey 4-1BB-his protein [2] = target: T2, monkey 4-1BB-his protein (monkey); experiment: ELISA, coated monkey 4-1BB-his; Ab 2 ug/ml
T2 construct: extracellular domain; Bought protein; also called extracellular domain of monkey-derived 4-1BB protein
Experimental: (§1) The purified immunogen A (4-1BB-hFc), monkey 4-1BB-his, and mouse 4-1BB-his obtained in Example 1 [for the preparation method, see step 1 of Example 1, preparation of immunogen A], of which the extracellular domain of monkey-derived 4-1BB protein (purchased from ACRO biosystems), the extracellular domain of mouse 4-1BB protein (purchased from sino biological) or other immune detection point proteins respectively were diluted with PBS to a final concentration of 1.0 μg/mL, then added with […] per well to 96-well ELISA plate. It was sealed with plastic film and incubated at 4° C. overnight. The next day, the plate was washed twice with the plate-washing solution [PBS containing 0.01% (v/v) Tween20] and blocking solution [PBS containing 0.01% (v/v) Tween 20 and 1% (v/v) BSA] was added and blocked at room temperature for 2 hours. The blocking solution was discarded and 100 μl of the purified 4-1BB antibody obtained in Example 2 was added per well. After incubated at 37° C. for 2 hours, the plate was washed 3 times with a plate-washing solution [PBS containing 0.01% (v/v) Tween20]. A secondary antibody (purchased from Sigma) labeled with HRP (horseradish peroxidase) was added, and after incubated at 37° C. for 2 hours, the plate was washed 3 times with a plate-washing solution [PBS containing 0.01% (v/v) Tween20]. 100 μl of TMB substrate was added per well. After incubated for 30 minutes at room temperature, 100 μl of stop buffer (1.0N HCl) was added per well. The A450 nm values were read using an ELISA plate reader (SpectraMax 384plus, Molecular Device).

monkey 4-1BB-his protein [3] = target: T2, monkey 4-1BB-his protein; experiment: ELISA, coated monkey 4-1BB-his; Ab 0.016 ug/ml
Experimental: as §1

monkey 4-1BB-his protein [4] = target: T2, monkey 4-1BB-his protein; experiment: ELISA, coated monkey 4-1BB-his; Ab 0.0032 ug/ml
Experimental: as §1

monkey 4-1BB-his protein [5] = target: T2, monkey 4-1BB-his protein; experiment: ELISA, coated monkey 4-1BB-his; Ab 0.0001 ug/ml
Experimental: as §1

monkey 4-1BB-his protein [6] = target: T2, monkey 4-1BB-his protein; experiment: ELISA, coated monkey 4-1BB-his; Ab 0.0006 ug/ml
Experimental: as §1

monkey 4-1BB-his protein [7] = target: T2, monkey 4-1BB-his protein; experiment: ELISA, coated monkey 4-1BB-his; Ab 0.4 ug/ml
Experimental: as §1

Binder	EC50 (read off the curve) [1] [µg/mL]	OD450 nm (monkey 4-1BB-his protein [2]) [OD450 nm]	OD450 nm (monkey 4-1BB-his protein [3]) [OD450 nm]	OD450 nm (monkey 4-1BB-his protein [4]) [OD450 nm]	OD450 nm (monkey 4-1BB-his protein [5]) [OD450 nm]	OD450 nm (monkey 4-1BB-his protein [6]) [OD450 nm]	OD450 nm (monkey 4-1BB-his protein [7]) [OD450 nm]
B1	~0.4						
B2		0.39	0.07	0.07	0.07	0.07	0.14
B3	~0.2						
B4		1.78	0.13	0.08	0.07	0.07	1.32
B5		1.51	0.12	0.07	0.07	0.07	1.18
B6	~0.2						
